Where a chain is given by its changes, count along the chain named.
T1: N(A2B2)A-avi-His (biotinylated at the avi tag)
T1 construct: also called biotinylated N(A2B2)A-avi-His
T1 chain: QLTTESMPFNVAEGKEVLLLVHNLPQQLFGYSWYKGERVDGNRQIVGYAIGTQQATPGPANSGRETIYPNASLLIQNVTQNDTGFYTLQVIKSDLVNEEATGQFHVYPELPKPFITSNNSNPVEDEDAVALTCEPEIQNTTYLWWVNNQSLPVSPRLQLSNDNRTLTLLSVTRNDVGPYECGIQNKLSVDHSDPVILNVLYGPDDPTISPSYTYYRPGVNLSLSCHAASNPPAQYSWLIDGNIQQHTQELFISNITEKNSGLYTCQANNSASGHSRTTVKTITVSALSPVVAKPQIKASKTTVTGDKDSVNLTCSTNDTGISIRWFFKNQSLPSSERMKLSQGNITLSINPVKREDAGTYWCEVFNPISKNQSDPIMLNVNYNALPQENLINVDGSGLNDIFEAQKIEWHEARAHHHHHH

T2: NA(B2)A-avi-His (biotinylated at the avi tag)
T2 chain: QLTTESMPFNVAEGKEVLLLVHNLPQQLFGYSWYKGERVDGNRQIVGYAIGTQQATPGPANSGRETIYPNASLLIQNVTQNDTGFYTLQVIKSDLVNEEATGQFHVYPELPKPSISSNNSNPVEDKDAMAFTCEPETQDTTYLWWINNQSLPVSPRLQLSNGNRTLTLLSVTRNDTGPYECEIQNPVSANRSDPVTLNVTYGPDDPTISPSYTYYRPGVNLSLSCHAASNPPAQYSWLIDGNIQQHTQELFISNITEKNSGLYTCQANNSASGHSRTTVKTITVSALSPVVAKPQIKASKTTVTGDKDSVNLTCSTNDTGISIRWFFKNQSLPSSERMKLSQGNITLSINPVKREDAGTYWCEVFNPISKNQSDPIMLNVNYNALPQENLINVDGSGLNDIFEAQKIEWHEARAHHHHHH

B1: P005.097 Fab (Fab, V domains shown)
VH: EVQLLESGGGLVQPGGSLRLSCAASGFTFTDYYMNWVRQAPGKGLEWLGFIGNKANAYTTEYSASVKGRFTISRDKSKNTLYLQMNSLRAEDTATYYCTRDRGLRFSFDYWGQGTTVTVSS
VL: EIVLTQSPATLSLSPGERATLSCRASSSVTYIHWYQQKPGQAPRSWIYATSNLASGIPARFSGSGSGTDFTLTISSLEPEDFAVYYCQHWSSQPPTFGQGTKLEIK
notes: Fab from E. coli
B2: P006.038 Fab (Fab, V domains shown)
VH: B1 VH with L104I, S107G
VL: B1 VL with Q93V
notes: Fab from E. coli
B3: P005.103 Fab (Fab, V domains shown)
VH: B1 VH with L104I, S107Y
VL: B1 VL with Q93I, P94S
notes: Fab from E. coli
B4: P005.102 Fab (Fab, V domains shown)
VH: B1 VH with L104I, S107Q
VL: B1 VL with Q93K, P94S
notes: Fab from E. coli
B5: FAP (4B9) - CD28 (CD28(SA)_Variant 19) 1+1 (bispecific antibody, human IgG1, kappa, L234A L235A)
heavy 1: EIVLTQSPGTLSLSPGERATLSCRASQSVTSSYLAWYQQKPGQAPRLLINVGSRRATGIPDRFSGSGSGTDFTLTISRLEPEDFAVYYCQQGIMLPPTFGQGTKVEIKSSASTKGPSVFPLAPSSKSTSGGTAALGCLVKDYFPEPVTVSWNSGALTSGVHTFPAVLQSSGLYSLSSVVTVPSSSLGTQTYICNVNHKPSNTKVDKKVEPKSCDKTHTCPPCPAPEAAGGPSVFLFPPKPKDTLMISRTPEVTCVVVDVSHEDPEVKFNWYVDGVEVHNAKTKPREEQYNSTYRVVSVLTVLHQDWLNGKEYKCKVSNKALGAPIEKTISKAKGQPREPQVCTLPPSRDELTKNQVSLSCAVKGFYPSDIAVEWESNGQPENNYKTTPPVLDSDGSFFLVSKLTVDKSRWQQGNVFSCSVMHEALHNHYTQKSLSLSP
light 1: EVQLLESGGGLVQPGGSLRLSCAASGFTFSSYAMSWVRQAPGKGLEWVSAIIGSGASTYYADSVKGRFTISRDNSKNTLYLQMNSLRAEDTAVYYCAKGWFGGFNYWGQGTLVTVSSASVAAPSVFIFPPSDEQLKSGTASVVCLLNNFYPREAKVQWKVDNALQSGNSQESVTEQDSKDSTYSLSSTLTLSKADYEKHKVYACEVTHQGLSSPVTKSFNRGEC
heavy 2: not shown
light 2: not shown
notes: huIgG1 PG-LALA CrossFab 1+1; also called P1AE3137
B6: FAP (4B9) - CD28 (CD28(SA)_Variant 23) 1+1 (bispecific antibody, human IgG1, kappa, L234A L235A)
heavy 1: B5 heavy 1
light 1: B5 light 1
heavy 2: not shown
light 2: not shown
notes: huIgG1 PG-LALA CrossFab 1+1; also called P1AE3138
B7: FAP (4B9) - CD28 (CD28(SA)_Variant 29) 1+1 (bispecific antibody, human IgG1, kappa, L234A L235A)
heavy 1: B5 heavy 1
light 1: B5 light 1
heavy 2: not shown
light 2: not shown
notes: huIgG1 PG-LALA CrossFab 1+1; also called P1AE3141
B8: FAP (4B9) - CD28 (CD28(SA)_Variant 25) 1+1 (bispecific antibody, human IgG1, kappa, L234A L235A)
heavy 1: B5 heavy 1
light 1: B5 light 1
heavy 2: not shown
light 2: not shown
notes: huIgG1 PG-LALA CrossFab 1+1; also called P1AE3139

Target: T1, N(A2B2)A-avi-His
Assay: SPR off-rate, ProteOn, antigen on NLC chip, Fab in bacterial supernatant

koff [s⁻¹]	Binder
8.87e-05	B1
7.41e-05	B2
5.37e-05	B3
4.24e-05	B4

Target: T1, N(A2B2)A-avi-His
Assay: SPR, ProteOn, antigen on NLC chip, purified Fab as analyte

Kd [nM]	koff [s⁻¹]	kon [M⁻¹ s⁻¹]	Binder
0.91	8.54e-05	94000	B1
0.25	5.78e-05	225000	B2
0.5	4.99e-05	100000	B3
0.29	3.92e-05	134000	B4

The binders below were run against human FAP on 3T3-huFAP cells (clone 19) (human, UniProt Q12884 1-760) (assay: flow cytometry on 3T3-huFAP cells, FAP-CD28 1+1 constructs, MFI (PE)).

binding result	Binder
binds	B5
binds	B6
binds	B7
binds	B8

Target: T2, NA(B2)A-avi-His
Assay: SPR, ProteOn, 2000 RU NA(B2)A-avi-His on NLC chip, Fab in bacterial supernatant

binding result	Binder
no binding	B1
no binding	B2
no binding	B3
no binding	B4

Each binder was assayed against T3, biotinylated huCD28-Fc (dimeric CD28-Fc construct with a monovalent biotinylated avi-tag) (human, UniProt P10747 19-152, biotinylated at the C-terminal avi tag) (assay: SPR, ProteOn XPR36, huCD28-Fc on NLC chip, bispecific as analyte).
T3 construct: not shown: hum IgG1 Fc fragment with hole and PG-LALA mutations; hum IgG1 Fc fragment with knob and PG-LALA mutations

Kd [nM]	koff [s⁻¹]	kon [M⁻¹ s⁻¹]	Binder
1.1	0.000304	280000	B5
16.3	0.00342	211000	B6
1.1	0.000307	272000	B7
1.7	0.000396	238000	B8

What follows are binders tested against T4, human CD28 on CHO cells (parental cell line CHO-k1 ATCC #CCL-61, modified to stably overexpress human CD28) (human, UniProt P10747 19-220) (assay: binding to CHO cells expressing human CD28 (by the table's title)).
T4 construct: also called hu CD28; CHO-hCD28

Kd [nM]	Binder
1.1	B5
16.3	B6
1.1	B7
1.7	B8

From US20230416365A1 (Hoffmann-La Roche, published 2023)
